Results taken from patent publication US20240342214A1 (MEDIZINISCHE HOCHSCHULE HANNOVER, published 2024).

T1: human ENTPD3 (Ectonucleoside triphosphate diphosphohydrolase 3) expressed on cells (human, UniProt O75355 1-529)
T1 sequence: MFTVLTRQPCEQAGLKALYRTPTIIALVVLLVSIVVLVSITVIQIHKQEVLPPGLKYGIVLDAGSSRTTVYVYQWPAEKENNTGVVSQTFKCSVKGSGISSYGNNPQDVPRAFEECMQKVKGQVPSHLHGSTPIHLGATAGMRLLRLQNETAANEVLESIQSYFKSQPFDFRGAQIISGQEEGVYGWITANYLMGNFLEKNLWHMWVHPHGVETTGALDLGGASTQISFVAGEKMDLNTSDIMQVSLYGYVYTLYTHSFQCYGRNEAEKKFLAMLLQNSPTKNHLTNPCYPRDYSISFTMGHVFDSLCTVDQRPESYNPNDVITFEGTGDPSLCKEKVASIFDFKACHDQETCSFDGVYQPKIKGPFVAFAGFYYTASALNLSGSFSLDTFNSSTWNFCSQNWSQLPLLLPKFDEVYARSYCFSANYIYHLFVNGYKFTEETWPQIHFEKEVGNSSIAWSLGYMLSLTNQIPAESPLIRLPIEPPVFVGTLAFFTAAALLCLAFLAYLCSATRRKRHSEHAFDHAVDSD

T2: murine ENTPD3 expressed on HEK293T cells (mouse, UniProt Q8BFW6 1-529)
T2 construct: Transiently transfected HEK293T cells (vector with eGFP behind a P2A site); also called mENTPD3; mouse ENTPD3
T2 sequence: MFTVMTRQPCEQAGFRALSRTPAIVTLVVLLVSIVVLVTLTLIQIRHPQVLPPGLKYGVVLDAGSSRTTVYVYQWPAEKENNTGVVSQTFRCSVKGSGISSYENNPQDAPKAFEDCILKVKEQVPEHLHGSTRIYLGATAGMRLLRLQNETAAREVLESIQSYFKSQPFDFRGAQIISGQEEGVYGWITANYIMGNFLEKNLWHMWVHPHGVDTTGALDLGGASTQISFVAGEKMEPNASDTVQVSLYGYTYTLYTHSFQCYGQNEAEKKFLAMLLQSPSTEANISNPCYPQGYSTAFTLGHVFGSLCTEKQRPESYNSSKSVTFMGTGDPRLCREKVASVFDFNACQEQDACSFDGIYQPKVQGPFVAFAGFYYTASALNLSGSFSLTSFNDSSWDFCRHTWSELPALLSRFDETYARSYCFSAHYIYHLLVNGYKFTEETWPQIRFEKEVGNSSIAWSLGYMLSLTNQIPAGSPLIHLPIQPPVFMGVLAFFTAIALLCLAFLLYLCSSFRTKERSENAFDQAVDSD

B1: CAR 2-CD8 (antigen binding domain from binder B2, CD8 hinge) (other)
chain: QVQLVQSGGGVVQPGRSLRLSCAASGFTFSSYAMSWVRQAPGKGLEWVSAISGSGGNTNYADSVKGRFTISRDNSKNTLYLQMNSLRAEDTAVYYCAKGGSTSSGYRFDYWGQGTLVTVSSGGGGSGGGGSGGGGSQLVLTQSPSASASLGASVKLTCTLSSGHSNYAIAWHQQQPEKGPRFLMNVNRDGSYTKGDGIPDRFSGSSSGAERYLTISSLQSDDEADYYCQTWGTGVQVFGGGTKLTVLTRFVPVFLPAKPTTTPAPRPPTPAPTIASQPLSLRPEACRPAAGGAVHTRGLDFACDIYIWAPLAGTCGVLLLSLVITLYCNHRPPALEWVRSKRSRLLHSDYMNMTPRRPGPTRKHYQPYAPPRDFAAYRSASCTRVKFSRSADAPAYQQGQNQLYNELNLGRREEYDVLDKRRGRDPEMGGKPRRKNPQEGLYNELQKDKMAEAYSEIGMKGERRRGKGHDGLYQGLSTATKDTYDALHMQALPPR
B2: hg012-E4 scFv (scFv)
scFv: QVTLKESGGGLVQPGRSLRLSCAASGFTFDDYAMHWVRQAPGKGLEWVSGISWNSGSIGYADSVKGRFTISRDNAKNSLYLQMNSLRAEDTALYYCAKGANYDILTGYRKDNWFDPWGQGTLVTVSSGSASAPKLEEGEFSEARVDIVMTQSPATLSLSPGERATLSCRASQSVGSSLAWFQQKPGQAPRLLIYDASNRATGIPARFSGSGSGTDFTLTISSLEPEDFAVYYCQQRSNWPPYTFGQGTKLEIKRTVAAPSVAAAGSEQKLISEEDLSHHHHHH
notes: Soluble scFv made in E. coli, with Myc tag and His tag
B3: hg012-C8 scFv (scFv)
scFv: QVTLKESGGGLVQPGRSLRLSCAASGFTFDDYAMHWVRQAPGKGLEWVSGISWNSGSIGYADSVKGRFTISRDNAKNSLYLQMNSLRAEDTALYYCAKGANYDILTGYRKDNWFDPWGQGTLVTVSSGSASAPKLEEGEFSEARVDIVMTQTPSTLSASVGDRVTITCRASQTISNWLAWYQQKPGKAPKLLIYKASTLESGVPSRFSGTGSGTEFTLTISSLQPDDFATYFCQQYHSYSRTFGQGTKVDVARTVAAPSVAAAGSEQKLISEEDLSHHHHHH
notes: as for B2
B4: hg012-C1 scFv (scFv)
scFv: QVQLVQSGAEVKKPGESLKISCKGSGYSFTSYWIGWVRQMPGKGLEWMGIIYPGDSGTRYSPSFQGQVTISADKSISTAYLQWSSLKASNTAMYYCARQQGAGAFDIWGQGTMVTVSSGSASAPKLEEGEFSEARVQSALTQPPSASGSPGQSVTISCTGTSRDVGGYNYVSWYQQHPGKAPKLILYEVTKRPSGVPDRFSGSKSGNTASLTISGLQAEDEADYYCSSYTSSSTVVFGGGTKLTVLGQPKAAPSVTLFPPSSAAAGSEQKLISEEDLSHHHHHH
notes: as for B2
B5: hg012-B7 scFv (scFv)
scFv: QVQLQQSGAEVKKPGASVKVSCKASGYTFTSYAMHWVRQAPGQRLEWMGWINAGNGNTKYSQKLQGRVTITRDTSASTAYMELSSLRSEDTAVYYCARDSGYDLFDYWGQGTLVTVSSGSASAPKLEEGEFSEARVQAVVTQEPSFSVSPGGTVTLTCGLTSGSVSTTYYPSWYQQTPGQTPRTLIYKTNLRSPGVPDRFSGSILGNKAALTITGAQADDDSDYYCLLYMGSGVWVFGGGTRLTVLGQPKAAPSVTLFPPSSAAAGSEQKLISEEDLSHHHHHH
notes: as for B2
B6: hg012-C6 scFv (scFv)
scFv: EVQLVQSGGGLVQPGRSLRLSCTASGFTFGDYAMSWVRQAPGKGLEWVGFIRSKAYGGTTEYAASVKGRFTISRDDSKSIAYLQMNSLKTEDTAVYYCTRVPVVAGWYNWFDPWGQGTLVTVSSGSASAPKLEEGEFSEARVQSVLTQPPSASGTPGQRVTISCSGSSSNIGSNYVYWYQQLPGTAPKLLIYRNNQRPSGVPDRFSGSKSGNTASLTVSGLQAGDEADYYCSSYAGSNNVVFGGGTKLAVLGQPKAAPSVTLFPPSSAAAGSEQKLISEEDLSHHHHHH
notes: as for B2
B7: hg012-D3 scFv (scFv)
scFv: QVQLVQSGGGLVQPGRSLRLSCAASGFTFDDYAMHWVRQAPGKGLEWVSGISWNSGSIGYADSVKGRFTISRDNAKNSLYLQMNSLRAEDTALYYCAKGANYDILTGYEYWGQGTLVTVSSGSASAPKLEEGEFSEARVQAVVTQEPSLTVSPGETVTLTCGSSTGAVTSDHHPYWFQQKPGQVPRTLMHDTSTRYSWTPARFSGSIVGGKAALTLSGAQPEDEAEYHCFLYYSGTAIFGGGTKLTVLSQPKAAPSVTLFPPSSAAAGSEQKLISEEDLSHHHHHH
notes: as for B2
B8: hg012-F10 scFv (scFv)
scFv: QMQLVQSGGGVVQPGRSLRLSCAASGFTFSSYGMHWVRQAPGKGLERVAVISYDGSNKYYADSVKGRFTISRDNSKNTLYLQMNSLRAEDTALYYCAKDHHPYGSSDSFDYWGQGTLVTVSSGSASAPKLEEGEFSEARVQAVVTQEPSLTVSPGGTVTLTCGSSTGAVTRGHYPYWLQQKPGQAPRTLIYDTVKKHSWTPARFSGSLVGGKAALTLSGAQPEDEADYYCLLSFIDTRYPARYVFGTGTKVTVLGQPKANPTVTLFPPSSAAAGSEQKLISEEDLSHHHHHH
notes: as for B2
B9: hg012-A8 scFv (scFv)
scFv: QVTLKESGGGLVQPGRSLRLSCAASGFTFDDYAMHWVRQAPGKGLEWVSGISWNSGSIGYADSVKGRFTISRDNAKNSLYLQMNSLRAEDTALYYCAKGANYDILTGYRKDNWFDPWGQGTLVTVSSGSASAPKLEEGEFSEARVLPVLTQPPSASGTPGQKVTISCSGSSSNIGSNYVFWYEQLPGAAPKLLMYSSNQRPSGVPDRFSGSKSGTSASLAISGLRSEDEADYYCAAWDDSLSGWVFGGGTKLTVLGQPKAAPSVTLFPPSSAAAGSEQKLISEEDLSHHHHHH
notes: as for B2

Each binder was assayed against T1, human ENTPD3 (Ectonucleoside …) (assay: cell-based or functional assay).

Binder | Fold Change in IFN-γ secretion (hIsMT/T cell co-culture 48 hrs) | Fold Change in IFN-γ secretion (hIsMT/T cell co-culture 72 hrs)
B1 | 269 fold, relative to the mock CD8 T cells condition | 294 fold, relative to the mock CD8 T cells condition

Each binder was assayed against T1, human ENTPD3 (Ectonucleoside …) (assay: flow cytometry; soluble scFv on transfected HEK293T cells; anti-His PE).
Method: (§1) scFv binders initially obtained by phage display cell panning were screened first for recognition of ENTPD3 expressed on cells. Therefore, soluble scFv were produced in E. coli and used to stain HEK293T cells transiently transfected with a vector expressing the recombinant protein and eGFP downstream separated by a P2A site. Secondary staining was performed by PE staining the His-Tag of soluble scFv. Cells were measured in flow cytometry for GFP (antigen expression) and PE (scFv binding).

Binder | binding result
B2 | binds
B3 | binds
B4 | binds
B5 | binds
B6 | binds
B7 | binds

Each binder was assayed against T2, murine ENTPD3 expressed on HEK293T cells in the same assay as above.
Method: as §1

Binder | binding result
B2 | no binding
B3 | no binding
B4 | no binding
B5 | no binding
B8 | no binding
B6 | no binding
B7 | no binding
B9 | no binding

Target: T1, human ENTPD3 (Ectonucleoside …)
Test: cell-based or functional assay
Remark: another data set of the same source

Binder | Fold Change in TNF-α secretion (hIsMT/T cell co-culture 48 hrs) | Fold Change in TNF-α secretion (hIsMT/T cell co-culture 72 hrs)
B1 | 521 fold, relative to the mock CD8 T cells condition | 568 fold, relative to the mock CD8 T cells condition
